Results on three molecules are retold here after US20130231277A1 (NEW YORK UNIVERSITY, published 2013).

Assay [1] has as its target T1, ectodomain of murine βKlotho (F53 to L995 of SEQ ID NO: 218) with a C-terminal FLAG tag (murine, UniProt Q99N32 53-995).
T1 construct: Expressed in HEK293 cells and purified from culture media; also called βKlotho ectodomain; not shown: C-terminal FLAG tag
T1 sequence: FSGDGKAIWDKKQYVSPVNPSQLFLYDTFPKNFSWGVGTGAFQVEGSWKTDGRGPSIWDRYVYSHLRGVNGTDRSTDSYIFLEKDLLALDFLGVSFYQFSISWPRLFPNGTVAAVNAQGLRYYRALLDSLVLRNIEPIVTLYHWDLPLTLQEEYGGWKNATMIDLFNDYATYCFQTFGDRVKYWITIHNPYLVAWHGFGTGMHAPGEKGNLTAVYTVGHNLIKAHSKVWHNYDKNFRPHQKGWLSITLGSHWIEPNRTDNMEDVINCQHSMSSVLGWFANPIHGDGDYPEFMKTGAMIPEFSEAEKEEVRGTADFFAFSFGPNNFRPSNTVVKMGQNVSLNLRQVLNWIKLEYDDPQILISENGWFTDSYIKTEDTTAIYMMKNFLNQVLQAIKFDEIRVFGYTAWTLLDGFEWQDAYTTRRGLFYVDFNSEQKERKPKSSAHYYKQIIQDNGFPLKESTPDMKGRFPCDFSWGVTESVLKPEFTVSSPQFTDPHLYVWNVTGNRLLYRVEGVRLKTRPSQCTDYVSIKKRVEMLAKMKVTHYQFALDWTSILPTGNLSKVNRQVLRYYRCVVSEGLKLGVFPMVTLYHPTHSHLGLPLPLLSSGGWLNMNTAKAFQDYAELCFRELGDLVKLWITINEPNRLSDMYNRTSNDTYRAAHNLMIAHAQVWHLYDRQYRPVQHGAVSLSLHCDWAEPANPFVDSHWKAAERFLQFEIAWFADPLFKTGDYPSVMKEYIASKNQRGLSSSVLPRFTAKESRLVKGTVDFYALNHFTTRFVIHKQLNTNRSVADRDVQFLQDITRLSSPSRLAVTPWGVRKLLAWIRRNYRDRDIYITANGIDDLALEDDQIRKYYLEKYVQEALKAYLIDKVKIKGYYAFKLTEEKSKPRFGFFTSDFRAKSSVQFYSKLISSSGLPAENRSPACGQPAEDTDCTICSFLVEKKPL
In words: SPR; βKlotho ectodomain immobilized, FGFR ligand-binding domain as analyte (FIG. 3B). How it is done:
FIGS. 3A-3G show the FGFR binding specificity profile of βKlotho. […] Where binding was observed, the dissociation constant (KD) was calculated from the saturation binding curve. The data shown in FIGS. 3A-G are representative of two to five independent experiments.
SPR experiments were performed on a Biacore 2000 instrument (Biacore AB), and all the protein-protein and protein-peptide interactions were studied at 25° C. in HBS-EP buffer (10 mM HEPES-NaOH, pH 7.4, 150 mM NaCl, 3 mM EDTA, 0.005% (v/v) polysorbate 20). Proteins were immobilized by amine coupling on flow channels of research grade CM5 chips (Biacore AB). Proteins were injected over a CM5 chip at a flow rate of 50 μl min⁻¹, and at the end of each protein injection (180 s), HBS-EP buffer (50 μl min⁻¹) was flowed over the chip to monitor dissociation for 180 s. In experiments where βKlotho binding to FGFR was analyzed, the chip surface was then regenerated by injecting 50 μl of 2.0 M NaCl in 10 mM sodium/potassium phosphate, pH 6.5. In experiments where α/βKlotho binding to FGF19/21/23 or binding of the FGFR1c-βKlotho complex to FGF21 was studied, 2.0 M NaCl in 10 mM sodium acetate, pH 4.5 was used for chip regeneration. To control for nonspecific binding in experiments where the ectodomain of αKlotho or βKlotho was immobilized on the chip, β-glucuronidase was coupled to the control flow channel of the chip (˜43-68 fmol/mm²).

Assay [2] concerns the target T2, 1:1 binary complex of FGFR1c ligand-binding domain and βKlotho ectodomain (human; murine, UniProt P11362 142-365; Q99N32 53-995).
T2 construct: also called FGFR1c-βKlotho complex; FGFR1c-βKlotho; not shown: C-terminal FLAG tag
T2 sequence 1: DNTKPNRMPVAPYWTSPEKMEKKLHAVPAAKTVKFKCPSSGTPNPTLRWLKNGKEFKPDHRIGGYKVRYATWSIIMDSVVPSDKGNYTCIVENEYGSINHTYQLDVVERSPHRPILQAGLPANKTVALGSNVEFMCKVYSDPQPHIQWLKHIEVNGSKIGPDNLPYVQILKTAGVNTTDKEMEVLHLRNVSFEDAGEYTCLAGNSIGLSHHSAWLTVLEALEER
T2 sequence 2: T1 sequence
In words: SPR competition; FGF21 immobilized, FGFR1c-βKlotho complex mixed with an equimolar amount of the chimera (FIG. 15F). How it is done: To examine whether mutants of FGF21 or chimeras composed of a N-terminal portion of FGF21 and a C-terminal portion of FGF19 can compete with wild-type ligand for binding to the FGFR1c-βKlotho complex, FGF21 was immobilized on a chip (˜30 fmol/mm² of flow channel). Increasing concentrations of FGF21 mutant or chimera (0-60 nM) were mixed with a fixed concentration of 1:1 complex of FGFR1c ligand-binding domain and βKlotho ectodomain (10 nM), and the mixtures were passed over the chip. As a control, competition of FGF21 in solution with immobilized FGF21 for binding to the FGFR1c-βKlotho complex was studied. The results are shown in FIGS. 14A to 14D and 15A to 15F.
A competition binding assay was selected over a direct binding assay because its binding data are not confounded by the effects that the coupling of one binding partner to the chip might have. Specifically, it was examined whether a mutant or chimera can compete with native FGF21 for binding to the FGFR1c-βKlotho complex. […] FGF21 was immobilized on a biosensor chip, and mixtures of a fixed concentration of FGFR1c-βKlotho complex with increasing concentrations of either FGF21 mutant or FGF21/FGF19 chimera were passed over the chip. As a control, competition of FGF21 in solution with immobilized FGF21 for binding to the FGFR1c-βKlotho complex was studied.

Assay [3] addresses T1, ectodomain of murine βKlotho (F53 to …). The assay can be described thus: SPR; FGF23 immobilized, increasing concentrations of βKlotho ectodomain passed over the chip (FIG. 4C). An excerpt:
FGF19 was immobilized on a biosensor chip, and increasing concentrations of βKlotho ectodomain were passed over the chip. […] FGF21 was immobilized on a biosensor chip, and increasing concentrations of βKlotho ectodomain were passed over the chip. Note that for any given concentration of βKlotho, the binding response is greater on the FGF19 chip surface than on the FGF21 chip surface. Also note that the FGF19-βKlotho complex dissociates more slowly than the FGF21-βKlotho complex (compare the dissociation phases of the sensorgrams shown in (A) and (B)). […] FGF23 was immobilized on a biosensor chip, and increasing concentrations of βKlotho ectodomain were passed over the chip. […] FGF19 was immobilized on a biosensor chip, and increasing concentrations of αKlotho ectodomain were passed over the chip. […] FGF21 was immobilized on a biosensor chip, and increasing concentrations of αKlotho ectodomain were passed over the chip. […]
SPR experiments were performed on a Biacore 2000 instrument (Biacore AB), and all the protein-protein and protein-peptide interactions were studied at 25° C. in HBS-EP buffer (10 mM HEPES-NaOH, pH 7.4, 150 mM NaCl, 3 mM EDTA, 0.005% (v/v) polysorbate 20). […] In experiments where βKlotho binding to FGFR was analyzed, the chip surface was then regenerated by injecting 50 μl of 2.0 M NaCl in 10 mM sodium/potassium phosphate, pH 6.5.

B1: ligand-binding domain of human FGFR2c (N149 to E368 of SEQ ID NO: 226) (receptor)
chain: NNKRAPYWTNTEKMEKRLHAVPAANTVKFRCPAGGNPMPTMRWLKNGKEFKQEHRIGGYKVRNQHWSLIMESVVPSDKGNYTCVVENEYGSINHTYHLDVVERSPHRPILQAGLPANASTVVGGDVEFVCKVYSDAQPHIQWIKHVEKNGSKYGPDGLPYLKVLKAAGVNTTDKEIEVLYIRNVTFEDAGEYTCLAGNSIGISFHSAWLTVLPAPGREKE
Turning to B1, the binding result in assay [1] is on record as “binds”.

B2: FGF21^29-197/FGF19^204-216 chimera (H29 to V197 of human FGF21 and T204 to K216 of human FGF19; SEQ ID NO: 205) (ligand)
chain: HPIPDSSPLLQFGGQVRQRYLYTDDAQQTEAHLEIREDGTVGGAADQSPESLLQLKALKPGVIQILGVKTSRFLCQRPDGALYGSLHFDPEACSFRELLLEDGYNVYQSEAHGLPLHLPGNKSPHRDPAPRGPARFLPLPGLPPALPEPPGILAPQPPDVGSSDPLSMVTGLEAVRSPSFEK
notes: Chimera of human FGF21 and human FGF19, purified from E. coli inclusion bodies; also called FGF21^C-tail variant 19-41; printed once as FGF21^29-97/FGF19^204-216
For the molecule B2, the “percent inhibition of FGFR1c-βKlotho binding to immobilized FGF21 at an equimolar ratio of chimera to complex” value in assay [2] was at most 75%.

B3: human FGF23, secreted bioactive form (Y25 to I251 of SEQ ID NO: 223) with arginines 176 and 179 replaced with glutamine (ligand)
chain: YPNASPLLGSSWGGLIHLYTATARNSYHLQIHKNGHVDGAPHQTIYSALMIRSEDAGFVVITGVMSRRYLCMDFRGNIFGSHYFDPENCRFQHQTLENGYDVYHSPQYHFLVSLGRAKRAFLPGMNPPPYSQFLSRRNEIPLIHFNTPIPRQHTQSAEDDSERDPLNVLKPRARMTPAPASCSQELPSAEDNSPMASDPLGVVRGGRVNTHAGGTGPEGCRPFAKFI
notes: The cleavage site was mutated to minimize proteolysis; Used as specificity control on the SPR chip
On to B3, for which the binding result in assay [3] is recorded as “no binding”.
